Data from the nanobody polyreactivity screen of Harvey et al. (2022).

Assay: yeast display, Sf9 membrane polyspecificity reagent, FACS + sequencing; frameworks hold sequencing errors
How it was run: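 Synthetic nanobody libraries on Saccharomyces cerevisiae BJ5465 were galactose-induced for 36–48 hours, stained 1 hour at 4 °C with 10% biotinylated, detergent-solubilized Sf9 membrane reagent and enriched on streptavidin microbeads. FACS then separated cells into low and high (top ~1%) gates by anti-HA (expression) and streptavidin (reagent binding) fluorescence. Genes were colony-PCR amplified, MiSeq 2 × 250 sequenced and CDR-length filtered. A clone's polyreactivity label is that of its gate of origin.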

Sequence | polyreactivity (PSR sort gate)
QVQLVESGGGLVQAGGSLRLSCAASGSIFVSNARVWYRQAPGKERELVAANTSSGSTDYADSVKGRFTISRANAKNTVYLQMNSLKPEDTAVYYCAAESYHTFFLWSLNDSWGQGTQVTVSS | low polyreactivity
QVQLVESGGGLVQAGGSLRLSCAASGSIFVSYTMGWYRQAPGKERELVAAITRSGGSTYYADSVKGRFTISRDNAKNTVYLQMNSLKPEDTAVYYCAAGTVDYRGYFEMYFWGQGTQVTVSS | low polyreactivity
QVQLVESGGGLVQAGGSLRLSCAASGSIFVSYTMGWYRQPPGKERELVAAISGGGASTYYADSVKGRFTISRDNAKNTVYLQMNSLKPEDTAVYYCNASRKRSYDYWGQGTQVTVSS | low polyreactivity
QVQLVESGGGLVQAGGSLRLSCAASGSIFVTNAMGWYRQAPGKERELVAAISNSGSSTYYADSVKGRFTISRDNAKNTVYLQMNSLKPEDTAVYYCAADWYGVTGSYYYWGQGTQVTVSS | high polyreactivity
QVQLVESGGGLVQAGGSLRLSCAASGSIFVTNAMGWYRQAPGKERELVAAISWRGGSTYYADSVKGRFTISRDNAKNTVYLQMNSLKPEDTAVYYCNTYHPYWGSGFDYWGQGTQVTVSS | low polyreactivity
QVQLVESGGGLVQAGGSLRLSCAASGSIFVTNAMGWYRQAPGKERELVAAISWRGGSTYYADSVKGRFTISRDNAKNTVYLQMNSLKPEDTGVYDCNTYHPYWGSGFDYWGLGTQVTVSS | low polyreactivity
QVQLVESGGGLVQAGGSLRLSCAASGSIFVTNAMGWYRQAPGKEREMVATITSSGSTNYADSVKGRFTISRDNAKNTVYLQMNSLKPEDTAVYYCAKRWLWYYWGFAPSDYWGQGTQVTVSS | low polyreactivity
QVQLVESGGGLVQAGGSLRLSCAASGSIFVTNGMGWYRQAPGKERELVAVISWGGGNTYYADSVKGRFTISRDNAKNTVYLLMNNLKPEDTAVYYCAVELYWDYYFTYGYWGKGTQVTVSS | low polyreactivity
QVQLVESGGGLVQAGGSLRLSCAASGSIFVTYAMGGYRQAPGKERELVAAISTSGGSTYADSVKGRFTISRDNAKNTVYLQMNSLKPEDTAVYYCNADDPGYAVPWYWFKFDYWGQGTQVTVSS | low polyreactivity
QVQLVESGGGLVQAGGSLRLSCAASGSIFVTYAMGLYRQAPGKERELVAAITSSDRTKYADSVKGRFTISRDNAKNTVYVQMHSLKPEDTAVYYGAKVVRTRYYGGYDYWGQVTQVTVSS | high polyreactivity
QVQLVESGGGLVQAGGSLRLSCAASGSIFVTYDMGWYRQAPGKERELVAGISGSGSTYYADSVKGRFTISRDNAKNTVYLQMNSLKPEDTAGYYCAAVWSRFLISYSTGWWFEYWGQGTQVTVSS | low polyreactivity
QVQLVESGGGLVQAGGSLRLSCAASGSIFVVYAMGWYRQAPGKARALVAAITSDDDTNYADSVKGRFTLSRDNAKNTVYLQMNSLKPEDTAVYYCAKEVWLAINTRTGYEVYYWGQGTQVTVTS | low polyreactivity
QVQLVESGGGLVQAGGSLRLSCAASGSIFVWNAMGWYRPAPGKERELVAAISYTDGSTYYADSVKGRFTISRDNAKNTVYLQMNSLKPVDTAVYYCAAAITPSYTGSEYDYWGQGTQVTVSS | low polyreactivity
QVQLVESGGGLVQAGGSLRLSCAASGSIFVWNAMGWYRQAPGKERELVAAITNIGGRTYYADSVKGRFTISRDNAKNTFYLQMNSLKPEDTAVYYCNVVVKGAWDYYPYDYWGQGTQVTVSS | high polyreactivity
QVQLVESGGGLVQAGGSLRLSCAASGSIFVWYAMGWYRQAPGKERELVARITSGGRTNYADSVKGRFTISRDNAKNTVYLQMNSLKPEDTAVYYCAAGRVSWSAYYYWGQGSQVTVSS | high polyreactivity
QVQLVESGGGLVQAGGSLRLSCAASGSIFVWYVMGWSRPAAGKERELVAAITWSAARTYYADSVKGRFTISRDNAKNTVYLQMNSLKPEDTAVYYCAADHVSYQPSSRIFDYWGQGTQVTVSS | low polyreactivity

Sequence | polyreactivity (PSR sort gate)
QVQLVESGGGLVQAGGSLRLSCAASGSIFVWYVMGWYRQAPGKERELVAAITWSAARTYYADSVKGRFTISRDNAKNTVYLQMNSLKPADTAVYYCAADHVSYQPSSRIFDYWGHGTQVTVSS | low polyreactivity
QVQLVESGGGLVQAGGSLRLSCAASGSIFVYNAMAWYRPAPGKERELVAAISRGGRTYADSVKGRFTISRDNAKNTVYLQMNSLKPEDTAVYYCAAQGYYRSWYSRQGHYDYWGQGTQVTVSS | high polyreactivity
QVQLVESGGGLVQAGGSLRLSCAASGSIFVYNAMGWYRHAPGTERELVAAISRRGGSTYYADSVKGRFTISRDNAKNTVYLQMNSLKPEDTAVYYCAAFASATRYDYWGQGTQVTVSS | high polyreactivity
QVQLVESGGGLVQAGGSLRLSCAASGSIFVYNAMGWYRQAPGKERELVAAISWSGGRTYYADSVKGRFTISRDNAKNTVYIQMNSLKPEDTAVYYCAARGPTRVPYNYWGQGTQVTVSS | high polyreactivity
QVQLVESGGGLVQAGGSLRLSCAASGSIFVYNAMGWYRQAPGKERELVAGITFIGGSTYYADPVKGRFTISRDNAKNTVYLQMNSLKPEDTAVYYCNADVAPGIFYGYDSWGQGTQVTVSS | low polyreactivity
QVQLVESGGGLVQAGGSLRLSCAASGSIFVYNAMGWYRQAPGKERELVASITWSGGRTYYADSVKGRFTISRDNAKNTVYLQMNSLKPEDTAVYYCAADSPRGYDYWGQGTQVTVSS | high polyreactivity
QVQLVESGGGLVQAGGSLRLSCAASGSIFVYNAMGWYRQAPRKETEMVAAITSTGRTYYADSVKGRFTISRDNAKNTVYLKMNSLKPEDTGVYYCAATYVWSTLQYKTWQKLTHYGYWGQGTQVTVSS | high polyreactivity
QVQLVESGGGLVQAGGSLRLSCAASGSIFVYYAMGWYRQAPGKERELVAAISSGDGTNYADSVKGRFTISRDNAKNTVYLQMNSLKPEDTAVYYCNADLDSGYGSYDYWGQGTEVTVSS | low polyreactivity
QVQLVESGGGLVQAGGSLRLSCAASGSIFVYYAMGWYRQAPGKERELVATIRGSGGSTYYADSVKGRFTISRDNAKNTVYLQMNSLKPEDTAVYYCAATIKYGGRWYGSWGQGTQVTVSS | high polyreactivity
QVQLVESGGGLVQAGGSLRLSCAASGSIFVYYAMGWYRQSPGKERELVAAINWSGGSTYYADSVKGRFTISRDNAKKTVYLQMNSLKPEDSAVYYCNAYLSPYDYDYWGQGTQVTLSS | low polyreactivity
QVQLVESGGGLVQAGGSLRLSCAASGSIFVYYGMGWYRQAPGKERELVAAISSGGSTHYADSVKGRFTISRDNAKNTVYFQMNSLKPEDTAVYYCAADRFFWLRSYPRYYYWGQGTQVTVSS | low polyreactivity
QVQLVESGGGLVQAGGSLRLSCAASGSIFVYYTMGWYRQAPGKERELVAAISISGTSTYYADSVKGRFTNSRDNAKNTVYLQMNSLKPEDTAVYYCAADTYYGEDYWGQGTQVTVSS | low polyreactivity
QVQLVESGGGLVQAGGSLRLSCAASGSIFVYYVMGWYRQAPGKDRELVAAINSDGDGTYYADSVKGRFTISRDNAKNTVYLQMNSLKPEDTAVYYCNALNPKSYDYWGQGTQVTVSS | low polyreactivity
QVQLVESGGGLVQAGGSLRLSCAASGSIFWANAMGWYRQAPGKERELVAAISSSGGRTYYADSVKGRFTISRDNAKNTVYLQMNSLKPEDTAVYYCNKLRLAYYEQGDYWGQGTQVTVSS | high polyreactivity
QVQLVESGGGLVQAGGSLRLSCAASGSIFWFNAMGWYRQAPGKEREFVASISRSGGTTYYADSVKGRFTISRDNAKNTVYLQMNSLKPEDTAVYYCNARAYGNGLGTGYFGKHRYDYWGQGTQVTVSS | low polyreactivity
